Test results published in patent US20250262297A1, “ALLERGY ANTIGEN AND EPITOPE THEREOF” (HOYU CO., LTD., priority 2017, published 2025).

B1: chaperonin CPN60-2, mitochondrial (protein)
chain: MYRFATSLASKARIARSSTQQIGSRVTWNRNYAAKDIKFGVEARALMLKGVEELADAVKVTMGPKGRNVVIEQSFGAPKVTKDGVTVAKSIEFKDKVKNIGASLVKQVANATNDVAGDGTTCATILTKAIFTEGCKSVAAGMNAMDLRRGINMAVDAVVTNLKSRARMISTSEEIAQVGTISANGEREIGELIAKAMEKVGKEGVITISDGKTLYNELEVVEGMKLDRGYISPYFITNQKNQKCELEDPLIIIHEKKISSINAIVKVLELALKRQRSLLIVAEDVESDALATLILNKLRAGIKVCAIKAPGFGENRKSGLQDLAVLTGGQLITEELGLNLEKVDLDLFGSCKKITISKDDTVILDGAGDKKAIEERCEQIRSAIENSTSDYDKEKLQERLAKLSGGVAVLKIGGASEAEVGEKKDRVTDALNATKAAVEEGIVPGGGVALLYASSELDKLQTANFDQKIGVQIIQNALKTPVHTIASNAGVEGAVVVGKLLEQNDPDLGYDAAKGEYVDMVKTGIIDPLKVIRTALVDAASVSSLMTTTEAVVSELPKDDKDVPAMGGGMGGMDY
modifications: Glycine max
notes: spot also identified as chaperonin CPN60-2, mitochondrial-like isoform X1
B2: transketolase, chloroplastic (protein)
chain: MASSTSSISLSQALLRPTTTSLPSSSSSLRLTPTLRPTPPALSLRRRLTTSIRAAASVKTVEKATADAALVEKSVNTIRFLAIDAVEKANSGHPGLPMGCAPMGHVLYDETMKYNPKNPFWFNRDRFVLSAGHGCMLQYALLHLAGFDSVKEEDLREFRQWGSRTPGHPENFETPGIEVTTGPLGQGIANAVGLALAEKHLAARYNKPDNEIVDHYTYAILGDGCQMEGIANEACSLAGHWGLGKLIAFYDDNHISIDGNTEIAFTESVDSRFEGLGWHVIWVKNGNNGYDDIRAAIKEAKAVKDKPTLIKVTTTIGYGSPNKANSYSVHGSALGAKEVDATRQNLGWSHEPFHVPEDVKKHWSRHTPEGAALEAEWNAKFAEYEKKYKEEAAELKSIINGEFPAGWEKALPTYTPESPADATRNLSQTNLNALAKVLPGLLGGSADLASSNMTLLKMFGDFQKDTPAERNVRFGVREHGMGAICNGIALHSPGLIPYCATFFVFTDYMRGAIRLSALSEAGVIYVMTHDSIGLGEDGPTHQPIEHLASFRAMPNILMLRPADGNETAGAYKVAVLNRKRPSILALSRQKLPQLPGTSIEGVEKGGYTISDNSTGNKPDVILIGTGSELEIAAKAADDLRKEGKAVRVVSLVSWELFDEQSEAYKESVFPAAVSARVSIEAGSTFGWEKIVGAKGKAIGIDRFGASAPAGRIYKEFGITKEAVVAAAKELI
B3: 51 kDa seed maturation protein precursor (protein)
chain: MASKVVSVLVIAMMLFAMNCNCTSVGHMPSTKEEGHDFQESKAKTTQTANKAMETGKEGQEAAESWTEWAKEKLSEGLGFKHDQESKESTTNKVSDYATDTAQKSKDYATDTAQKSKDYAGDAAQKSKDYAGDAAQKTKDYASDTAQTSKDYAGDAAQKSKGYVGDAAQKTKEYVGDAAQKTKDYATDAAQKTKDYATQKTKDYASDATDAAKKTKDYAAQKTKDYASEASDVAQNTKDYAAQKTKDYASGGAQKTKDYASGGAQKTKDYASDAAQKTKDYASDGAQKSKEYAGDVALNAKDYAQKSKDYAGDAAQNVKDYASDAVQKRKEYSGDASHKSKEASDYASETAKKTKDYVGDAAQRSKGAAEYASDAAQRTKEYAGDATKRSKEASNDHANDMAQKTKDYASDTAQRTKEKLQDIASEAGQYSAEKAREMKDAAAEKASDIAKAAKQKSQEVKEKLGGQHRDAEL
modifications: Glycine max
notes: spot also identified as Lea protein precursor
B4: alpha-1,4 glucan phosphorylase L isozyme, chloroplastic/amyloplastic (protein)
chain: MASSSTTMRFSAASTGAAAALPRRSSVAGFIGVAARSSAKSRLRFIGRNANLSLRMRRMSSFSVVKCVSGSEAKVQDTVAKQQEATTSLSSFTPDASSIASSIKYHAEFTPLFSPENFDLPQAFLATAQSVRDSLIINWNATYDYYEKLNVKQAYYLSMEFLQGRALLNAIGNLELTGPYAEALSKLGHKLENVAYQEPDAALGNGGLGRLASCFLDSLATLNYPAWGYGLRYKYGLFKQRITKDGQEEVAEDWLEMGNPWEIIRNDVSYPVKFYGKVVSGSDGKKHWIGGEDIKAVAHDVPIPGYKTKTTINLRLWSTKAASEEFDLSAFNAGRHTEASEALANAEKICYILYPGDEPIEGKILRLKQQYTLCSASLQDIIARFERRSGANVNWEEFPEKVAVQMNDTHPTLCIPELMRILIDVKGLNWKDAWNITQRTVAYTNHTVLPEALEKWSLDLMQKLLPRHIEIIEMIDEELVRTIIAEYGTENSDLLEKKLKEMRILENVELTAEFADILVKSKEAIDIPSEELQSSEQAEAEDEKDDDEVEAVAKKNGTDESSIEDEKEELPEPVPEPPKLVRMANLCVVGGHAVNGVAEIHSEIVKDDVFNAFYKLWPEKFQNKTNGVTPRRWIRFCNPDLSKIITEWIGTEDWVLNTGKLAELRKFVDNEDLQVQWREAKRSNKVKVAAFIREKTGYSVSPDAMFDIQVKRIHEYKRQLMNIFGIVYRYKKMKEMSAAEREANFVPRVCIFGGKAFATYVQAKRIVKFITDVGATVNHDPEIGDLLKVVFVPDYNVSVAEMLIPASELSQHISTAGMEASGTSNMKFAMNGCILIGTLDGANVEIREEVGADNFFLFGAKAHEIAGLRKERAEGKFVPDPRFEEVKEFVRSGIFGSYNYDELMGSLEGNEGFGRADYFLVGKDFPSYIECQEKVDEAYRDQTKWTRMSILNTAGSYKFSSDRTIHEYAREIWNIEPVQLP
B5: triosephosphate isomerase isoform X1 (protein)
chain: MGRKFFVGGNWKCNGTTEEVKKIVTTLNEAKVPGEDVVEVVVSPPFVFLPFVKSLLRPDFHVSAQNCWVRKGGAYTGEVSAEMLVNLGIPWVIIGHSERRQLLNESNEFVGDKVAYALQQGLKVIACIGETLEQREAGTTTAVVAEQTKAIAAKISNWDNVVLAYEPVWAIGTGKVATPAQAQEVHADLRKWVHDNVSAEVAASVRIIYGGSVNGGNCKELAAQPDVDGFLVGGASLKAEFVDIINAATVKKN
modifications: Glycine max
notes: spot also identified as triosephosphate isomerase, cytosolic
B6: superoxide dismutase [Fe], chloroplastic isoform X1 (protein)
chain: MASLGGLQNVSGINFLIKEKGCCMLQGPKVNAKFELKPPPYPLNGLEPVMSQQTLEFHWGKHHKTYVENLKKQVVGTELDGKSLEEIIVTSYNKGDILPAFNNAAQVWNHDFFWECMKPGGGGKPSGELLELIERDFGSFVKFLDEFKAAAATQFGSGWAWLAYRARKFDGENVANPPSPDEDNKLVVLKSPNAVNPLVWGGYYPLLTIDVWEHAYYLDFQNRRPDYISVFMDKLVSWDAVSSRLEQAKALITSA
modifications: Glycine max
notes: spot also identified as iron-superoxide dismutase
B7: aconitate hydratase 1 (protein)
chain: MATENPFNSILTTLEKPGGAGEFGKYFSLPALNDRRIDRLPYSVRILLESAIRNCDEFQVKSNDVEKIIDWENTSPKLVEIPFKPARVLLQDFTGVPAVVDLACMRDAMNKLGGDSNKINPLVPVDLVIDHSVQVDVARSENAVQANMELEFQRNKERFGFLKWGSNAFNNMLVVPPGSGIVHQVNLEYLGRVVFNTNGVLYPDSVVGTDSHTTMIDGLGVAGWGVGGIEAEAAMLGQPMSMVLPGVVGFKLLGKLRDGVTATDLVLTVTQMLRKHGVVGKFVEFYGEGMSELSLADRATIANMSPEYGATMGFFPVDHVTLQYLRLTGRSDETVSMIESYLRANKMFVDYSEPQVERVYSSYLELNLEDVEPCVSGPKRPHDRVPLREMKVDWHACLNNKVGFKGFAVPKESQNKVAEFTFQGTPAHLRHGDVVIAAITSCTNTSNPSVMLGAALVAKKACELGLQVKPWIKTSLAPGSGVVTKYLQRSGLQKYLNELGFNIVGYGCTTCIGNSGDINEAVASAITENDIVAAAVLSGNRNFEGRVHPLTRANYLASPPLVVAYALAGTVDIDFDTEPIGIGKDGTKIFFRDIWPSSEEIANVVQSSVLPAMFRDTYNAITQGNPMWNNLSVPTGTLYAWDPTSTYIHEPPYFRDMSMSPPGSHGVKDAYCLLNFGDSITTDHISPAGSIHKDSPAARYLIERGVDRRDFNSYGSRRGNDEVMARGTFANIRIVNKFLNGEVGPKTIHIPSGEKLSVFDAAEKYKSEGHDMIILAGAEYGSGSSRDWAAKGPMLLGVKAVIAKSFERIHRSNLVGMGIIPLCFKPGDDADSLGLTGHERYTIDLPSNVNEIRPGQDVTVVTDAGKSFVSTLRFDTEVELAYFNHGGILQYVIRNMVNAKH
modifications: Glycine max

These molecules were tested on IgE antibodies from soybean-allergic patients (assay: Immunoblotting of two-dimensional electrophoresis pattern of soybean proteins with patient serum). Settings: spot in 2D electrophoresis gel of soybean proteins; patient serum compared with healthy subject serum.
Format: binding, human
Excerpt: Transfer to membrane was done using the following transfer system and transfer buffer. • Transfer system: XCell SureLock Mini-Cell and XCell II Blot Module (produced by Life Technologies) • Transfer buffer: NuPAGE Transfer Buffer (X20) (produced by Life Technologies), used in a form diluted 20-fold with milliQ water.
To be specific, proteins in the two-dimensional electrophoresis gels were transferred to a membrane (PVDF membrane) according to the following procedure. • (1) The PVDF membrane was immersed in 100% methanol followed by milliQ water, and then moved into the transfer buffer to hydrophilize the PVDF membrane. • (2) After sponge, filter paper, the gels treated by second-dimensional SDS-PAGE, the hydrophilized PVDF membrane, filter paper, and sponge were put in place in this order, the transfer system was energized at a constant voltage of 30 V for one hour.
Immunoblotting of the membrane was carried out using, as a primary antibody, a serum sample from a patient with a soybean allergy or a serum sample from a healthy subject.
Immunoblotting of the membrane was carried out according to the following procedure. • (1) The transferred membrane was shaken in a 5% skim milk/PBST solution (a PBS buffer containing 0.3% Tween 20 nonionic surfactant) at room temperature for one hour. • (2) The membrane was left to stand in a solution of 3% primary antibody serum in 5% skim milk/PBST at room temperature for one hour. • (3) The membrane was washed with a PBST solution (5 min.×3 times). • (4) The membrane was left to stand in a 1:2500 dilution of the secondary antibody, anti-human IgE-HRP (horseradish peroxidase), with a 3% skim milk/PBST solution at room temperature for one hour. • (5) The membrane was washed with a PBST solution (5 min.×3 times). • (6) The membrane was left to stand in Pierce Western Blotting Substrate Plus (produced by Thermo Fisher Scientific) for 5 minutes.
The membrane obtained through the foregoing series of treatments was subjected to fluorescent image scanning on Typhoon 9400 (produced by GE).
The immunoblots obtained with the serum from the soybean-allergic patient were compared with those obtained with the control serum from the healthy subject.

| specific binding to IgE antibodies from soybean-allergic patients | Molecule |
| --- | --- |
| specific binding | B1 |
| specific binding | B2 |
| specific binding | B3 |
| specific binding | B4 |
| specific binding | B5 |
| specific binding | B6 |
| specific binding | B7 |
